Assay [1] deals with T1, in vitro phosphorylated tau 2N4R point mutant Thr217Ala (human, UniProt P10636 1-758, phosphorylated in vitro with rat brain kinase extract; sites not listed).
T1 construct: also called Thr217A1a
The experiment in a line: immunoblot of in vitro phosphorylated tau 2N4R point mutants. As to the method:
Soluble tau proteins were diluted with an equal volume of 2×SDS (sodium dodecylsulfate) sample loading buffer (with β-mercaptoethanol) (Laemmli, 1970) and 250 ng of proteins were loaded per lane. For insoluble PHF-tau, the pellets were dissolved in 1×SDS-sample loading buffer, in 1/50 volume of the soluble fraction used for the preparation of the insoluble tau fraction. Then, equal volumes of soluble tau and sarkosyl-insoluble tau fractions were used for immunoblotting, which corresponded to 15 μg of total protein in the soluble fraction (see Filipcik et al. 2010). Samples were heated at 95° C. for 5 min, loaded onto 5-20% gradient SDS polyacrylamide gels, and electrophoresed in a Tris-glycine-SDS buffer system for 40 minutes at 25 mA. Proteins were transferred to a polyvinylidene fluoride (PVDF) membrane (1 h at 150 mA in 10 mM CAPS, pH 12). […] The blots were developed with SuperSignal West Pico Chemiluminescent Substrate (Pierce, U.S.A), and the protein signals detected using a LAS3000 imaging system (FUJI Photo Film Co., Japan). The chemiluminescence signal intensities were quantified using AIDA (Advanced Image Data Analyzer, Raytest, Straubenhardt, Germany) software. […]
(Immunoblotting shows a protein as a band on a membrane.)

Assay [2] has as its target in vitro phosphorylated tau deletion mutant tau 221-441 (human, UniProt P10636 538-758, phosphorylated in vitro with rat brain kinase extract; sites not listed). The experiment in a line: immunoblot of in vitro phosphorylated tau deletion mutants.
The target of assay [3] is in vitro phosphorylated tau151-391 (human, UniProt P10636 468-708, phosphorylated in vitro with rat brain kinase extract; the phosphorylated sites are not listed). The experiment in a line: immunoblot. As to the method:
(§1) Adult rat brain (1 g/2.5 ml) was homogenized in kinase buffer (10 mM TRIS-HCl, pH 7.4; 5 mM EGTA, 2 mM DTT; 1 mM PMSF; 2 mM MgCl₂, leupeptin ([…]), pepstatin ([…]), aprotinin ([…])) and after centrifugation at 100,000×g for 30 min at 4° C. the supernatant (kinase extract) was used for the phosphorylation of tau. The phosphorylation reaction was carried out at 37° C. in 10 mM TRIS-HCl, pH 7.4; 5 mM EGTA, 2 mM DTT; 1 mM PMSF; leupeptin (20 μg/ml); pepstatin (20 μg/ml); aprotinin (20μg/ml); 2 mM ATP; 2 mM MgCl₂ and 10 μM okadaic acid. The brain kinase extract (5μl) was added to 50 μl tau solution (1 μM) and reaction was incubated at 37° C. for 24 h. The phosphorylation of tau was analysed by SDS-PAGE and immunoblotting using rabbit anti-serum raised against six recombinant human tau isoforms (Csokova et al., Rapid purification of truncated tau proteins: model approach to purification of functionally active fragments of disordered proteins, implication for neurodegenerative diseases, Protein Expression and Purification, 35:366-372, 2004).
(§2) Soluble tau proteins were diluted with an equal volume of 2×SDS (sodium dodecylsulfate) sample loading buffer (with β-mercaptoethanol) (Laemmli, 1970) and 250 ng of proteins were loaded per lane. […]

Assay [4] addresses T2, in vitro phosphorylated human tau 2N4R (human, UniProt P10636 1-758, phosphorylated in vitro with rat brain kinase extract; the phosphorylated sites are not listed).
T2 construct: also called phosphorylated tau 2N4R; 2N4R in vitro phosphorylated
Briefly: immunoblot. As to the method: as §1, §2

Assay [5] has as its target recombinant tau deletion mutant tau 221-441 (unphosphorylated) (human, UniProt P10636 538-758). The experiment in a line: ELISA, coated recombinant tau proteins, DC2E2 hybridoma supernatant. As to the method:
(§3) Deletion mutants of human tau protein 2N4R were used for epitope mapping of DC2E2 using ELISA (FIG. 2A). Recombinant human tau isoforms 2N4R, 1N4R, 2N3R, 0N4R, 1N3R, 0N3R and tau deletion mutants were prepared as described in Example 1. Microtiter plates were coated overnight at 37° C. with recombinant tau proteins ([…] in PBS, 50 μl/well). The plates were blocked with PBS-Tween20 (0.1% v/v) to reduce nonspecific binding and were incubated with 50 μl/well of DC2E2 hybridoma culture supernatant, for 1 hr at 37° C. Bound monoclonal antibody was detected with sheep anti-mouse Ig HRP-conjugated (DAKO). The reaction was developed with TMB one solution (Kem-En-Tec Diagnostics) as a peroxidase substrate and stopped with 50 μl of 2M H₂SO₄. Absorbance was measured at 450 nm using a Powerwave HT (Bio-Tek). Readouts with an absorbance value of at least twice the value of the negative controls (PBS) were considered positive.
Background: An ELISA detects its analyte on a solid surface through an enzyme-linked reagent.

The target of assay [6] is recombinant tau deletion mutant tau 1-136 (human, UniProt P10636 1-387). The assay is described as above. As to the method: as §3
The target in assay [7] is T3, recombinant tau deletion mutant tau2N4RΔ(134-168) (human, UniProt P10636 1-758).
T3 construct: Tau 2N4R with residues 134-168 deleted; also called tau 2N4R(A134-168)
The description is as above. As to the method: as §3

In assay [8] the target is T4, recombinant human tau isoform 0N3R (human, UniProt P10636-2 2-352).
T4 construct: mature
The experiment in a line: ELISA, coated recombinant tau protein, hybridoma supernatant. As to the method:
as §3

The target in assay [9] is recombinant truncated tau151-391 (unphosphorylated) (human, UniProt P10636 468-708). Described as above. As to the method:
as §3

Assay [10] has as its target recombinant tau deletion mutant tau 127-441 (human, UniProt P10636 378-758). Described as above. As to the method:
as §3

The target of assay [11] is recombinant tau deletion mutant tau 1-226 (human, UniProt P10636 1-543). The assay is described as above. As to the method: as §3
Assay [12] has as its target recombinant tau deletion mutant tau 31-441 (human, UniProt P10636 31-758). The assay is described as above. As to the method: as §3
In assay [13] the target is T5, recombinant human tau isoform 0N4R (human, UniProt P10636-6 2-383).
T5 construct: mature
The description is as above. As to the method:
as §3

Assay [14] has as its target recombinant tau deletion mutant tau 99-441 (human, UniProt P10636 99-758). Described as above. As to the method:
as §3

Assay [15] concerns the target T6, recombinant human tau isoform 1N4R (human, UniProt P10636-7 2-412).
T6 construct: mature
The assay is described as above. As to the method:
as §3

Assay [16] addresses T7, recombinant human tau isoform 1N3R (human, UniProt P10636-4 2-381).
T7 construct: mature
Described as above. As to the method: as §3

The target of assay [17] is T8, recombinant human tau isoform 2N3R (human, UniProt P10636-5 2-410).
T8 construct: mature
The description is as above. As to the method:
as §3

Assay [18] deals with T9, recombinant tau deletion mutant tau 1-242 (human, UniProt P10636 1-559).
T9 construct: Numbered on tau 2N4R; It was the immunogen for DC2E2
Briefly: hybridoma screening ELISA on coated tau 1-242. As to the method:
The plates were blocked with 1% nonfat dried milk to reduce nonspecific binding, washed with PBS-0.05% Tween 20, and incubated with 50 μl/well of hybridoma culture supernatant for 1 hr at 37° C. Bound monoclonal antibodies were detected with sheep anti-mouse immunoglobulin (Ig) conjugated with horse radish peroxidase (HRP, DAKO). The reaction was developed with TMB one (Kem-En-Tec Diagnostics) as a peroxidase substrate and stopped with 50 μl of 2 M H₂SO₄. Absorbance at 450 nm was measured using a Powerwave HT (Bio-Tek). Readouts with an absorbance value of at least twice the value of the negative controls (PBS) were considered positive. Positive hybridoma cultures were further subcloned in soft agar according to the procedure described in Kontsekova et al., One-step method for establishing 8-azaguanine-resistant hybridomas suitable for preparation of triomas, J. Immunol. Methods, 145, 247-250 (1991).

T6 sequence (P10636 other isoform, or with tags, fused parts or gaps): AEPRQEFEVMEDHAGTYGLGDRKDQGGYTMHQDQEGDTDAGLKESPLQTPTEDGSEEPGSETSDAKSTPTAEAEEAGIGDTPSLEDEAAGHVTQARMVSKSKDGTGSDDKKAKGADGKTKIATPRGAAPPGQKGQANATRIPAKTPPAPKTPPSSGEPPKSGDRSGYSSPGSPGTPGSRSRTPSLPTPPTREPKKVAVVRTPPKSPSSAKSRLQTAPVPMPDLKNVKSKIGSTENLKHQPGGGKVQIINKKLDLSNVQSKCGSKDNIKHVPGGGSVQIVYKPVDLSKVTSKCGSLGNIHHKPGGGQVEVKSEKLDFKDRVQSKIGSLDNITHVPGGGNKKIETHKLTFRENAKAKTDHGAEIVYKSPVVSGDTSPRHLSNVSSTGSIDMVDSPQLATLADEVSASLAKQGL
T3 sequence (P10636 other isoform, or with tags, fused parts or gaps mutant): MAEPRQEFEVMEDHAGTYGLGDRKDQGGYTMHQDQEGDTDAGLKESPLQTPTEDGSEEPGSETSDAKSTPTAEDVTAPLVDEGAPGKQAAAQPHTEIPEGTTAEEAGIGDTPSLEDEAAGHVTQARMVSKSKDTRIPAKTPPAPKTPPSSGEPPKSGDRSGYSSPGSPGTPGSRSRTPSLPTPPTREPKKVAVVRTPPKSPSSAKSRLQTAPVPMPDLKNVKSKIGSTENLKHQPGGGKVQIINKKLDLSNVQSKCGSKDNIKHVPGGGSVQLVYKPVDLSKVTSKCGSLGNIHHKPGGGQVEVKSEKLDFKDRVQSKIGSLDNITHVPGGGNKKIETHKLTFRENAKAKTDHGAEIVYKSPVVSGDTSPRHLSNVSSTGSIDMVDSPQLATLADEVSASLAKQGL
T8 sequence (P10636 other isoform, or with tags, fused parts or gaps): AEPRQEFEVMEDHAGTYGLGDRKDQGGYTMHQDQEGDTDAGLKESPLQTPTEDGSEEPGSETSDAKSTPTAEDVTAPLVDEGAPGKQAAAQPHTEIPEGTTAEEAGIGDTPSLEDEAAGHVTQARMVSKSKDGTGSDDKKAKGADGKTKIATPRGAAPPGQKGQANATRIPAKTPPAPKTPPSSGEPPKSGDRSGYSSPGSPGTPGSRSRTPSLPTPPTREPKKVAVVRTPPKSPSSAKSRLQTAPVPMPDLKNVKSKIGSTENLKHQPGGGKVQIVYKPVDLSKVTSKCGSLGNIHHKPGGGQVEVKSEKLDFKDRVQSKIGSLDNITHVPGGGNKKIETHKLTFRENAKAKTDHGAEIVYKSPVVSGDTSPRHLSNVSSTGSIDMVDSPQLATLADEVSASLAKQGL
Sequence of recombinant tau deletion mutant tau 221-441 (unphosphorylated) (P10636 other isoform, or with tags, fused parts or gaps mutant): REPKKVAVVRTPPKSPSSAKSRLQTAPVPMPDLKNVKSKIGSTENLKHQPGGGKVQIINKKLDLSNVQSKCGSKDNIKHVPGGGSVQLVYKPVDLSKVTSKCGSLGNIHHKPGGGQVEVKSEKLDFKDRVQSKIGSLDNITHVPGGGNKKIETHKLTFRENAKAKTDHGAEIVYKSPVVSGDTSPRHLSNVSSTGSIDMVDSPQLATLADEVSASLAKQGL
T2 sequence (P10636 other isoform, or with tags, fused parts or gaps limits assumed): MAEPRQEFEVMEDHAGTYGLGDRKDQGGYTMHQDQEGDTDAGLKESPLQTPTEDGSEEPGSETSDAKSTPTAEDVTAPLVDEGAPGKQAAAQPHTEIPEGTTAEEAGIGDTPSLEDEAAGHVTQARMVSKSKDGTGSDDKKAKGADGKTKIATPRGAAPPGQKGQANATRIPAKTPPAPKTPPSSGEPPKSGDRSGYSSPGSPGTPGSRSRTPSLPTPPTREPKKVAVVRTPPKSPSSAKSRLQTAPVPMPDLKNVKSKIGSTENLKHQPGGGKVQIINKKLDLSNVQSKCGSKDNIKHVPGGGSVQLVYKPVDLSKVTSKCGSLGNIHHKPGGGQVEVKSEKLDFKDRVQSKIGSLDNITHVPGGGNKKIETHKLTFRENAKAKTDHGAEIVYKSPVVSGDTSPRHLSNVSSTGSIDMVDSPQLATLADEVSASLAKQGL
Sequence of recombinant tau deletion mutant tau 1-136 (P10636 other isoform, or with tags, fused parts or gaps mutant): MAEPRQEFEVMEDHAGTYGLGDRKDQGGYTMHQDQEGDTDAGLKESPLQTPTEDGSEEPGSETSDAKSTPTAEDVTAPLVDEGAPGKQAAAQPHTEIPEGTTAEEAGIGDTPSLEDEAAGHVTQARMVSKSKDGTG
Sequence of recombinant tau deletion mutant tau 1-226 (P10636 other isoform, or with tags, fused parts or gaps mutant): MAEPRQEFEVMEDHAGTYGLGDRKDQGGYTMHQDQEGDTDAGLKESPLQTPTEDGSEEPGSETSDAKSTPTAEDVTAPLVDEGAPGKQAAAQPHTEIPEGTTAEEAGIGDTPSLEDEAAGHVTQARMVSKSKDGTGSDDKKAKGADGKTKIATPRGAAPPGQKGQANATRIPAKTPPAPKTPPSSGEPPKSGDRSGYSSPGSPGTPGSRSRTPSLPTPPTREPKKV
T4 sequence (P10636 other isoform, or with tags, fused parts or gaps): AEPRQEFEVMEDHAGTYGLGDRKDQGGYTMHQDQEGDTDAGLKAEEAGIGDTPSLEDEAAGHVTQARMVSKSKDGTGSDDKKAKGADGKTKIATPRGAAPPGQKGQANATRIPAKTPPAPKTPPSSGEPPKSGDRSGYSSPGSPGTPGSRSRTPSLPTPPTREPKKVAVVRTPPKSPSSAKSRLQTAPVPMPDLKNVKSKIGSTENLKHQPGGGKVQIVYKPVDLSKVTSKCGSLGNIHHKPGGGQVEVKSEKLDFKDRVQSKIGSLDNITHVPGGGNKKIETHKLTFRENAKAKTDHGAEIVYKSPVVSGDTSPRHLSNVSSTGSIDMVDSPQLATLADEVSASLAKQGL
Sequence of recombinant truncated tau151-391 (unphosphorylated) (P10636 468-708 I625L): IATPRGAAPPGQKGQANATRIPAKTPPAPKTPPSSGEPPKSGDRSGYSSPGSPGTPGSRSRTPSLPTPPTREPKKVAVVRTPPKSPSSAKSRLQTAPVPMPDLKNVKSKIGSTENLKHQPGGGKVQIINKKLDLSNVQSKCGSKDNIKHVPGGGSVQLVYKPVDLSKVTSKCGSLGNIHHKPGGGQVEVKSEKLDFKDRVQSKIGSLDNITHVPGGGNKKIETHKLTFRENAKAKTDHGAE
Sequence of in vitro phosphorylated tau151-391 (P10636 468-708 I625L): as above
Sequence of recombinant tau deletion mutant tau 127-441 (P10636 other isoform, or with tags, fused parts or gaps mutant): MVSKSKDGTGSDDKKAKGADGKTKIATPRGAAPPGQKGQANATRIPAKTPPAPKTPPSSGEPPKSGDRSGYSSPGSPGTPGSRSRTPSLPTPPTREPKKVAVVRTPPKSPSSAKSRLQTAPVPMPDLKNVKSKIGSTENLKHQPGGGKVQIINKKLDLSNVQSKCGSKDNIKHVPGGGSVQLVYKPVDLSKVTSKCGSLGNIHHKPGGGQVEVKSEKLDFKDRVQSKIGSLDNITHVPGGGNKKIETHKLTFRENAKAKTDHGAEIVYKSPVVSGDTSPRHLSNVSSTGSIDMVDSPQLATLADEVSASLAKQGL
T7 sequence (P10636 other isoform, or with tags, fused parts or gaps): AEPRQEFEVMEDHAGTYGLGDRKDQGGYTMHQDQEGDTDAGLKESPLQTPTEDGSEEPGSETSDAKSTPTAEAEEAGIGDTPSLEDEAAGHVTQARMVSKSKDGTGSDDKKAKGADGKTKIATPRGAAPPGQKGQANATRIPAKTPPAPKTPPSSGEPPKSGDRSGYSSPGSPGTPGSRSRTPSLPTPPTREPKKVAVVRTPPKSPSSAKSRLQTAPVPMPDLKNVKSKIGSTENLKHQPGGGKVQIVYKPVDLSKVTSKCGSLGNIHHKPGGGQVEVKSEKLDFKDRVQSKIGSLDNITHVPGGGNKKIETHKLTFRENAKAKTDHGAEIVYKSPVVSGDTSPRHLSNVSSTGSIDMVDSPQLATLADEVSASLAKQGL
T1 sequence (P10636 other isoform, or with tags, fused parts or gaps T217A T217A limits assumed): as the sequence (P10636 other isoform, or with tags, fused parts or gaps limits assumed) above, with T217A counted along it
T9 sequence (P10636 other isoform, or with tags, fused parts or gaps mutant): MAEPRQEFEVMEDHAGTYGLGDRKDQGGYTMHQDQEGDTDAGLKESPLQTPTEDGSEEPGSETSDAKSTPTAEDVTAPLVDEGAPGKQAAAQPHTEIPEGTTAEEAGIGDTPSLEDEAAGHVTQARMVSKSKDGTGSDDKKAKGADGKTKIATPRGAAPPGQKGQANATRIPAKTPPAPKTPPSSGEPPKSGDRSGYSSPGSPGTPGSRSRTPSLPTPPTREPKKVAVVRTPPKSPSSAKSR

B1: monoclonal antibody DC2E7 (antibody, mouse IgG2a, V domains shown)
VH: DVQLVESGGGLVQPGGSRKLSCAASGFTFSSFGMHWVRQAPEKGLEWVAYISGDSNTIYYADTVKGRFTISRDNPKNTLFLQMTSLRSEDTAIYYCARTLAYWGQGTLVTVS
VL: DIQMTQSSSSFSVSLGDRVTITCKASEDIYNRLAWYQQTPGNAPSLLISGASGLETGVPSRFSGSGSGRDYTLSITSLQTEDVATYYCLQYWSIPWTFGGGTKLEIKR
notes: also called DC217 (apparent misprint)
B1: the binding result in assay [1] and in assay [2] was “no binding” throughout.

B2: monoclonal antibody DC2E2 (antibody, V domains shown)
VH: EVQLQQSGAELVRPGALVKLSCKASGFNIKDYYMHWVRQRPDQGLEWIGWLDPENDHTIYDPRFQDRANLTADTSSNTAYLQLSSLTSEDTAVYYCSYYKYDDYWGQGTTLTVS
VL: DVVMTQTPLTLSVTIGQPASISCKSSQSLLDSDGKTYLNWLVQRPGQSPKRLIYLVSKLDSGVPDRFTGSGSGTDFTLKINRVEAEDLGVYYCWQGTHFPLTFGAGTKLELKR
notes: Used as hybridoma supernatant or Protein G purified; biotinylated as detector in the digital ELISA
As to B2, the binding result is on record as “binds” in [3]; “binds” in assay [4]; “no binding” in assay [5]; “no binding” in [6]; “no binding” in assay [7]; “binds” in assay [8]. Further, the binding result in assay [9], in [10], in assay [11], in [12], in [13] and in assay [14] was “binds” each time. Besides, the binding result in assay [15], in [16], in [17] and in [18] was “binds” each time.
